Consider 20 molecules from patent US5652105A, “Substrate for detection of mammalian 5-C-DNA methyltransferase” (Health Research, Inc., priority 1995, dated 1997).

For data set [1], the system named is murine DNA 5-C-MTase. Description: Methylation assay: methyl transfer from [methyl-3H]AdoMet to ODNs by DNA methyltransferase from Friend erythroleukemia cell nuclei. The class given is biochemical. The following applies: Table 2; enzyme preparation from Friend leukemia cells; 1 μg oligomer; average of 2 expts; background 2691.
In data set [2] the test system is bacterial SssI methyltransferase. Description: DNA methylase substrate activity with bacterial SssI enzyme preparation. It counts as biochemical. The following applies: Table 3; bacterial SssI enzyme preparation; 0.25 μg oligomer; average of 2 expts; background 1351. The text has this: They are labeled Sense (S), Antisense (AS), Methylated Antisense 1 (M1) and Methylated Antisense 2 (M2). […] This property of M2 provides an approach to accurately monitoring levels of DNA methyltransferase activity in clinically obtained tissue samples that might otherwise be contaminated by bacteria, since bacterial DNA methyltransferase activity would be excluded as a component of this measurement.
RESULTS ARE AVERAGE OF 2 EXPTS. BACTERIAL SSS1 ENZYME PREPARATION. ASSAYE

Data set [3] has as its system murine DNA 5-C-MTase. As to the kind of experiment: Methylation assay: methyl transfer from [methyl-3H]AdoMet to ODNs by DNA methyltransferase from Friend erythroleukemia cell nuclei. The class given is biochemical. The following applies: for DNA METHYLASE (FL) SUBSTRATE ACTIVITY, ACTIVITY (CPM): Table 4, single and double stranded constructs, average of 2 expts, background 1813. As to the method:
The phosphoramidite of 5-fluorodeoxycytidine (5FdC) and unmodified 5-methyl deoxycytosine (5MdC) and 5FC-containing ODNs were synthesized and purified as described in Marasco, C. J. et al., J. Org. […] 5MdC phosphoramidite is commercially available. ss ODNs were heated to 90° C. for 10 min and quickly chilled on ice immediately prior to assay. […] For ds ODNs, an equimolar mixture of complementary ODNs was heated to 90° C. for 10 min and slowly cooled to room temperature.
Preparation of Murine DNA 5-C-MTase. The DNA 5-C-MTase used in these studies was the 100,000×g supernatant of a 0.3M NaCl extract of Friend erythroleukemia cell nuclei.
Methylation Assay. Reaction mixtures (50 μl ) in 0.1M imidazole, pH 7.4/20 mM EDTA/0.5 mM dithiothreitol contained 0.5 μg of each ODN indicated, ≈0.6 units of DNA 5-C-MTase (1 unit transfers 1 pmol to A (AS)·A'Mp (M1) per min; see Table 7), and 2.8 μCi (1 Ci=37 GBq) of [methyl-^3 H]AdoMet (AdoMet=S-adenosylmethionine) (8 μM). […] For accuracy, methylation rates <5 pmol/30 min were measured in quadrupled reaction mixtures (200 μl ). After incubation for 30 min at 37° C., ODNs were processed for quantitation of radiolabel as described (20) with 25 μg of salmon sperm DNA added as carrier prior to perchloric acid precipitation.
All assays were performed in duplicate.

Data set [4] deals with Friend leukemia cells. As to the kind of experiment: Growth of Friend leukemia cells treated with phosphorothioate end capped oligomers. The conditions noted are these: concentrations of oligomers. The arrangement: dose or concentration left out as unconfirmed. It counts as cell-based, murine. As for the experimental part: Having established that specific phosphorothioate end capped ODNs retain activity against DNA methyltransferase, their biological effects were examined in intact Friend cells: the biological effects of oligomer A were compared to oligomer B which has no available substrate sites and thus cannot be an inhibitor of DNA methyltransferase, and of oligomer D with oligomer C which has no FC.
A test was conducted to determine if these oligomers affect growth or differentiation of Friend leukemia cells. If growth effects are due to the toxicity of FC released from oligomers, then oligomer A and oligomer B should have equivalent effects and oligomer C should have no effect on growth.
Oligomer C may have a minor effect if it competes with endogenous DNA for DNA methyltransferase binding in a reversible manner. If, however, growth effects are due to a generalized effect of high oligomer concentration, then all oligomers, A, B and C, should affect growth similarly.

Data set [5] deals with T1, DNA 5-C-methyltransferase (murine, Friend erythroleukemia cells) (Mus musculus, UniProt P13864 P13864:1-1620). Description: methylation rate. The following applies: protein: extract; tags: 0.3 M NaCl nuclear extract, 100,000 x g supernatant; single approx. 190 kDa species forming covalent complexes. As to the method:
(§1) Methylation Assay. Reaction mixtures (50 µl) in 0.1M imidazole, pH 7.4/20 mM EDTA/0.5 mM dithiothreitol contained 0.5 µg of each ODN indicated, ≈0.6 units of DNA 5-C-MTase (1 unit transfers 1 pmol to A (AS)·A'M_p (M1) per min; see Table 7), and 2.8 µCi (1 Ci=37 GBq) of [methyl-^3H]AdoMet (AdoMet=S-adenosylmethionine) (8 µM). Substrate C sites are in excess in the reaction, and methyl transfer is linear for >45 min. For accuracy, methylation rates <5 pmol/30 min were measured in quadrupled reaction mixtures (200 µl). After incubation for 30 min at 37° C., ODNs were processed for quantitation of radiolabel as described (20) with 25 µg of salmon sperm DNA added as carrier prior to perchloric acid precipitation.
(§2) Substitution of C residues with 5FC was used to determine which sites become substrates for enzymatic methylation in A strands containing 5MeC. It has been shown that both bacterial and mammalian DNA 5-C-MTases form stable covalent linkages with 5FC residues in DNA during the process of methylation. Under conditions of substrate excess, this leads to rapid inactivation of the enzymes. […] Thus, 5MeC in position 5 or 7 activates DNA 5-C-MTase to methylate C18 while failing to activate methylation of a C residue only two bases downstream.

Data set [6] has as its target T1, DNA 5-C-methyltransferase (murine, …). As to the kind of experiment: methylation rate. The conditions noted are these: protein: extract; tags: 0.3 M NaCl nuclear extract, 100,000 x g supernatant; single approx. 190 kDa species forming covalent complexes; potential stem-loop.
For data set [7] the target is unchanged. As to the kind of experiment: methylation rate; 150 in Table 10. The following applies: protein: extract; tags: 0.3 M NaCl nuclear extract, 100,000 x g supernatant; single approx. 190 kDa species forming covalent complexes. As for the experimental part:
as §1

Data set [8] has as its target T2, Hha I DNA methyltransferase (UniProt P05102 P05102:1-327).
T2 sequence: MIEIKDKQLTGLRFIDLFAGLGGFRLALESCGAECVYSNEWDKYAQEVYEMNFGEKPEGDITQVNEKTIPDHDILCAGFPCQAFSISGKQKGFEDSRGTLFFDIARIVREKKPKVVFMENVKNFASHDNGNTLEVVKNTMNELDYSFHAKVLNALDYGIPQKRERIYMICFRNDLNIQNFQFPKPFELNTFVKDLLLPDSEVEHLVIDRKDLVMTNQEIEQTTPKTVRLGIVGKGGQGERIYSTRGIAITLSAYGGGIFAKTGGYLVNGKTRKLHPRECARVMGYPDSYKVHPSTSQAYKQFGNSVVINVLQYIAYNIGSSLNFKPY
As to the kind of experiment: ss ODNs not substrates at 37 C.

Data set [9] deals with T1, DNA 5-C-methyltransferase (murine, …). Description: inhibition; methylation rate; 5FC in substrate site inactivates enzyme. The conditions noted are these: protein: extract; tags: 0.3 M NaCl nuclear extract, 100,000 x g supernatant; single approx. 190 kDa species forming covalent complexes. As to the method:
as §1, §2

Data set [10] has the same target. As to the kind of experiment: methylation rate; 170 in Table 6, 130 in Table 10. The following applies: protein: extract; tags: 0.3 M NaCl nuclear extract, 100,000 x g supernatant; single approx. 190 kDa species forming covalent complexes.
The target is the same in data set [11]. Description: methylation rate; 128 in Table 10. The conditions noted are these: protein: extract; tags: 0.3 M NaCl nuclear extract, 100,000 x g supernatant; single approx. 190 kDa species forming covalent complexes. As for the experimental part: as §1
Data set [12] has the same target. As to the kind of experiment: inhibition; methylation rate; 3 in Table 6; potent inhibitor. The conditions noted are these: protein: extract; tags: 0.3 M NaCl nuclear extract, 100,000 x g supernatant; single approx. 190 kDa species forming covalent complexes.
Data set [13] shares this target. As to the kind of experiment: methylation rate. The conditions noted are these: protein: extract; tags: 0.3 M NaCl nuclear extract, 100,000 x g supernatant; single approx. 190 kDa species forming covalent complexes. The source holds these as a separate data set.

T1 sequence (P13864 whole entry, one chain of several): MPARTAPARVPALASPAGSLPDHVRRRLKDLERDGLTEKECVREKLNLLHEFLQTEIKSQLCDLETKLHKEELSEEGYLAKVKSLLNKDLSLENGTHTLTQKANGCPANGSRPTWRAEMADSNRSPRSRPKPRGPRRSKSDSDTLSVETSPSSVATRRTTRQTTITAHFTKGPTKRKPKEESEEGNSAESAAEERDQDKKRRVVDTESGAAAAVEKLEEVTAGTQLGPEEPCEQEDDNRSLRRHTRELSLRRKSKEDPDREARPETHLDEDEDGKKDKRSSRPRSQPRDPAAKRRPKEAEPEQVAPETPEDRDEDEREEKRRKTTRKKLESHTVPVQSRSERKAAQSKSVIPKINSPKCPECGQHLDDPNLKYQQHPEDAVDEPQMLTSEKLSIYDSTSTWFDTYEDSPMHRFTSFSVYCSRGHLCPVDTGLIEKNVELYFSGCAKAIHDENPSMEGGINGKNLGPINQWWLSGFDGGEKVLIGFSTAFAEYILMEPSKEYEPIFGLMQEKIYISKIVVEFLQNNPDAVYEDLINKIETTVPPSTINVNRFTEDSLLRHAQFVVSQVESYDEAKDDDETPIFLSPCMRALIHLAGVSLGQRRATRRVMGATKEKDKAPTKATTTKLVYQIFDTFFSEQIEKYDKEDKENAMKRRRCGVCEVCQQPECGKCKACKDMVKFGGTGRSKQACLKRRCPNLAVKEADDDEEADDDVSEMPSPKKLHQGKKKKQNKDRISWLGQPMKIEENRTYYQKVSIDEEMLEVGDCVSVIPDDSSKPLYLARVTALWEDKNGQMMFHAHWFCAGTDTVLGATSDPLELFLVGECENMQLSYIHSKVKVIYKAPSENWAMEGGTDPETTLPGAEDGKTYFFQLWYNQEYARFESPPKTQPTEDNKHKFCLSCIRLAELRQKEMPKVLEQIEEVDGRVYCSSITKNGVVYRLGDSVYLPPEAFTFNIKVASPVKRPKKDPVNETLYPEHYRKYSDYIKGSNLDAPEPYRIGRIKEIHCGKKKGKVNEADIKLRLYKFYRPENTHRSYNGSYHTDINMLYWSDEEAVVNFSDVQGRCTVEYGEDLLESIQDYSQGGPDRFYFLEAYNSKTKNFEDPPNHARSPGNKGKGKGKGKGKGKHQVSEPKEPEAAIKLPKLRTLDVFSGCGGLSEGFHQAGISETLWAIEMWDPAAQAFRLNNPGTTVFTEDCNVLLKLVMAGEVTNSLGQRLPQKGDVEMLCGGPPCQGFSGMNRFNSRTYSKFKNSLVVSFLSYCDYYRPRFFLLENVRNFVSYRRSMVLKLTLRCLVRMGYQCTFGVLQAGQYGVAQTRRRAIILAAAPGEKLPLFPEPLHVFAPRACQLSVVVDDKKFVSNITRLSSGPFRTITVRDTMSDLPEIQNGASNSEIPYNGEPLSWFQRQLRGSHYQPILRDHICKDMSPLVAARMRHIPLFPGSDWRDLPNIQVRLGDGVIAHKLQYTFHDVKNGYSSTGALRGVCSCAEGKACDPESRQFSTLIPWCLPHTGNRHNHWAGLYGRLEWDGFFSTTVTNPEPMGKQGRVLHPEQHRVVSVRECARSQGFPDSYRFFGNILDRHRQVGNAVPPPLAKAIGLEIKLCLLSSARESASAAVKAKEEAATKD

As to “3' TAACGCGTAAGGCCTAGGCGCTAG 5' (chemistry not given here; listed 3' to 5') [unmethylated sense single-stranded 24mer ODN]”, the results for the “DNA METHYLASE SUBSTRATE ACTIVITY, ACTIVITY (CPM)” value (from here on “DNA METHYLASE SUBSTRATE ACTIVITY”) in data set [1] and in [2] were 4843 CPM and 175225 CPM, respectively. Further, the “DNA METHYLASE (FL) SUBSTRATE ACTIVITY, ACTIVITY (CPM)” value (“DNA METHYLASE (FL) SUBSTRATE ACTIVITY” for short) in data set [3] is on record as 1598 CPM.
For “5' ATTGCGCATTCCGGATCCGCGATC 3' (chemistry not given here) [AS, unmethylated antisense single-stranded 24mer ODN]”, the “DNA METHYLASE SUBSTRATE ACTIVITY” value in [1] is 12341 CPM; in data set [2], 49282 CPM. Also, in [3], the “DNA METHYLASE (FL) SUBSTRATE ACTIVITY” value worked out at 1936 CPM. Also, in data set [3] (Table 6, single-stranded ODN), the “RELATIVE ACTIVITY (rate of methylation relative to an equal amount of AS)” value came out at 1. The “RATE (rate of methylation relative to A)” value in data set [3] (Table 10, ss ODNs with 5 mC and 5 FC substitutions) turned out to be 1.
In the case of “5' ATTGNGCATTCNGGATCNGNGATC 3' (5-methylcytosine at 5, 12, 18, 20, further chemistry not given here) [M1, AS with 5-methylcytosine (N) at 5, 12, 18, 20 (all CpG sites)]”, the “DNA METHYLASE SUBSTRATE ACTIVITY” value in data set [1] came to 5487 CPM; in data set [2], 2339 CPM. Moreover, in [3], the “DNA METHYLASE (FL) SUBSTRATE ACTIVITY” value was 1373 CPM.
On to “ATTGCGNATTCCGGATCCGCGATC (phosphorothioate end caps, 5-methylcytosine 7, further chemistry not given here) [Oligomer C, phosphorothioate end capped ASM7]”, for which the “inhibition of growth of Friend leukemia cells (in words)” value in [4] is “no appreciable effect”.
For the molecule “ATTGCGNATTCCGGATCNGCGATC (phosphorothioate end caps, 5-MeC 7, 5-FC 18, further chemistry not given here) [Oligomer A, phosphorothioate end capped ASM7F18]”, in data set [4], the “inhibition of growth of Friend leukemia cells (in words)” value is on record as “more potent that B”. In addition, the “inhibition of methylation by incorporation of FC in position 18” value in data set [3] (oligomer A compared with capped ASM7, cell free enzyme assay) turned out to be 97%.
As to ATTGCGCATTCCGGATCCGCGATC (ssDNA, 5mC at 7; 5-fluoro-C at 20 [5mC at 7; 5-fluoro-C at 20]) [ASM7 F20], the binding signal in [5] was 160 relative to A.
As for ATGACGCACCTCGTTGACGCGCTA (ssDNA, 5mC at 7) [structure 6 ODN], the binding signal in [6] is > 300 relative to A.
For ATTGCGCATTCCGGATCCGCGATC (ssDNA, 5mC at 5) [ASM5], the binding signal in [7] is 175 relative to A.
In the case of ATTGCGCATTCCGGATCCGCGATC (ssDNA, 5mC at 7,11,17; 5-fluoro-C at 20 [5mC at 7,11,17; 5-fluoro-C at 20]) [AMx F20], the binding signal in data set [5] was 168 relative to A.
GATCGCGGATCCGGAATGCGCAAT (ssDNA) [S (A')]: the binding result in data set [8] is reported as “no binding”.
Consider ATTGCGCATTCCGGATCCGCGATC (ssDNA, 5mC at 5; 5-fluoro-C at 18) [ASM5 F18], for which, in data set [9], the binding signal was 1 relative to A.
As for ATTGCGCATTCCGGATCCGCGATC (ssDNA, 5mC at 7 [5mC at 7]) [ASM7], the binding signal in data set [10] was 140 relative to A.
In the case of ATTGCGCATTCCGGATCCGCGATC (ssDNA, 5mC at 5; 5-fluoro-C at 20) [ASM5 F20], the binding signal in data set [5] was 152 relative to A.
Consider ATTGCGCATTCCGGATCCGCGATC (ssDNA, 5mC at 7,11,17 [5mC at 7,11,17]) [M2 (AMx)], for which the binding signal in [11] is 130 relative to A.
On to ATTGCGCATTCCGGATCCGCGATC (ssDNA, 5mC at 7; 5-fluoro-C at 18 [5mC at 7; 5-fluoro-C at 18]) [ASM7 F18], for which, in [12], the binding signal was 3.2 relative to A.
Regarding GATCGCGGATCCGGAATGCGCAAT (ssDNA, 5mC at 6,19) [A' 5mC6,19], the binding signal in data set [13] was 1 relative to A.
Take ATTGCGCATTCCGGATCCGCGATC (ssDNA, 5mC at 7,11,17; 5-fluoro-C at 5 [5mC at 7,11,17; 5-fluoro-C at 5]) [AMx F5]: the binding signal in data set [5] was 170 relative to A.
Consider ATTGCGCATTCCGGATCCGCGATC (ssDNA, 5mC at 7,11,17; 5-fluoro-C at 18 [5mC at 7,11,17; 5-fluoro-C at 18]) [AMx F18], for which the binding signal in data set [9] is 2 relative to A.
Turning to ATTGCGCATTCCGGATCCGCGATC (ssDNA, 5mC at 7,11,17; 5-fluoro-C at 12 [5mC at 7,11,17; 5-fluoro-C at 12]) [AMx F12], the binding signal in data set [5] was 165 relative to A.
Take ATTGCGCATTCCGGATCCGCGATC (ssDNA) [AS (A)]: the binding result in data set [8] is “no binding”.
